This note sets out measurements from patent publication US20240156961A1, “TISSUE-SPECIFIC ANTIGENS FOR CANCER IMMUNOTHERAPY” (priority 2020, published 2024).

Assay [1] has as its target T1, class I HLA molecules (Homo sapiens, UniProt P01889).
T1 construct: Frozen cell pellets endogenously expressing MHC molecules (untagged) or biotin acceptor peptide (BAP)-tagged MHC molecules; biotin acceptor peptide (BAP), only in some samples; endogenous in cells; host or cells: Human cell lines (e.g. MDAPCa2b, CAMA1, HCC1500, A375, Expi293, B721) and human tissue (prostate, tumours); some cell samples express BAP-tagged HLA
Put plainly: Targeted mass spectrometry MHC-peptide analysis (SureQuant, heavy isotope-labeled synthetic peptides). The note with it: light endogenous vs heavy isotope-labeled synthetic peptide; human prostate specimen; HLA-B*07:02; Skyline software.
Procedure: Tissue samples were homogenized in lysis buffer plus benzonase nuclease. All lysates were cleared by centrifugation. […] BAP-tagged samples were biotinylated with 0.56 μM biotin, 1 mM ATP, and 1 μM BirA biotin ligase for 10 minutes, and subsequently incubated with High-Capacity NeutrAvidin Agarose resin for 30 minutes at 4° C. with end-over-end rotation. […] MHC molecules were eluted using 10% acetic acid and peptides were isolated using 10K molecular weight cut-off filtration following filter passivation with 1% bovine serum albumin (BSA). If required, samples were next reduced and alkylated using 5 mM Bond-Breaker TCEP solution at 60° C. for 30 min followed by 15 mM 2-Iodoacetamide for 30 min, protected from light. […] The volume of eluted peptides was reduced using vacuum centrifugation. For targeted analyses, isolated MHC-I peptides were labeled using an isobaric labeling reagent from the tandem mass tag (TMT) 10-plex reagent set (Thermo Fisher). Dried peptides were resuspended in 50 mM HEPES buffer pH 8.5 and combined with 33.3 μg of TMT solubilized in 100% anhydrous acetonitrile. […] Peptides were analyzed using SureQuant targeted data acquisition strategy, where the heavy isotope labeled synthetic peptide serves as a trigger to guide the acquisition of spectrum corresponding to the light (unlabeled) endogenous MHC peptide using mass offset triggering and pseudo-spectral matching. […]

In assay [2] the target is T2, HLA-C*04:01 (human).
T2 construct: MHC class I molecule expressed by the cells or tissue sample (endogenous or BAP-tagged), immunopurified before peptide elution
Put plainly: MS validation of HLA class I-presented peptide; sample human prostate. On the procedure:
(§1) Frozen cell pellets endogenously expressing MHC molecules (untagged) or biotin acceptor peptide (BAP)-tagged MHC molecules were lysed by pipetting and end-over-end rotation for twenty minutes using lysis buffer [20 mM Tris-Cl pH 8, 100 mM NaCl, 6 mM MgCl2, 1.5% (v/v) Triton X-100, 60 mM octyl B-D-glucopyranoside, 0.2 mM of 2-Iodoacetamide, 1 mM EDTA pH 8, 1 mM PMSF, 1× complete EDTA-free protease inhibitor cocktail (Roche)] plus benzonase nuclease for twenty minutes. Tissue samples were homogenized in lysis buffer plus benzonase nuclease. All lysates were cleared by centrifugation. Samples with untagged MHC molecules were subsequently incubated with GammaBind Plus Sepharose Beads (GE Healthcare) pre-charged with a pan-HLA A/B/C antibody (clone W6/32) overnight at 4 C with end-over-end rotation. BAP-tagged samples were biotinylated with 0.56 μM biotin, 1 mM ATP, and 1 μM BirA biotin ligase for 10 minutes, and subsequently incubated with High-Capacity NeutrAvidin Agarose resin for 30 minutes at 4° C. with end-over-end rotation. Following enrichment, beads were washed 2× with wash buffer A [20 mM Tris-Cl pH 8, 100 mM, NaCl, 60 mM octyl B-D-glucopyranoside, 0.2 mM of 2-Iodoacetamide, 1 mM EDTA pH 8] and wash buffer B [10 mM Tris-Cl pH 8] using a positive pressure manifold. MHC molecules were eluted using 10% acetic acid and peptides were isolated using 10K molecular weight cut-off filtration following filter passivation with 1% bovine serum albumin (BSA). If required, samples were next reduced and alkylated using 5 mM Bond-Breaker TCEP solution at 60° C. for 30 min followed by 15 mM 2-Iodoacetamide for 30 min, protected from light. Samples were next acidified using 100% formic acid and desalted using 10 mg Sep-Pak tC18 μElution plates with peptide elutions at 15% acetonitrile and 50% acetonitrile, which were subsequently pooled. The volume of eluted peptides was reduced using vacuum centrifugation.

The target of assay [3] is T3, HLA-A*02:01 (human).
T3 construct: MHC class I molecule expressed by the cells or tissue sample (endogenous or BAP-tagged), immunopurified before peptide elution
Nature of the assay: MS validation of HLA class I-presented peptide; samples CAMA1, HCC1500. On the procedure: as §1, with “MHC molecules were eluted using 10% acetic acid and peptides were isolated using 10K molecular weight cut-off filtration following filter passivation with 1% bovine serum albumin (BSA). If required, samples were next reduced and alkylated using 5 mM Bond-Breaker TCEP solution at 60° C. for 30 min followed by 15 mM 2-Iodoacetamide for 30 min, protected from light. Samples were next acidified using 100% formic acid and desalted using 10 mg Sep-Pak tC18 μElution plates with peptide elutions at 15% acetonitrile and 50% acetonitrile, which were subsequently pooled. The volume of eluted peptides was reduced using vacuum centrifugation.” left out

The target of assay [4] is T3, HLA-A*02:01. Nature of the assay: MS validation of HLA class I-presented peptide; sample A375. On the procedure:
as §1, with “MHC molecules were eluted using 10% acetic acid and peptides were isolated using 10K molecular weight cut-off filtration following filter passivation with 1% bovine serum albumin (BSA). If required, samples were next reduced and alkylated using 5 mM Bond-Breaker TCEP solution at 60° C. for 30 min followed by 15 mM 2-Iodoacetamide for 30 min, protected from light. Samples were next acidified using 100% formic acid and desalted using 10 mg Sep-Pak tC18 μElution plates with peptide elutions at 15% acetonitrile and 50% acetonitrile, which were subsequently pooled. The volume of eluted peptides was reduced using vacuum centrifugation.” left out

For assay [5], the target named is T3, HLA-A*02:01. Nature of the assay: MS validation of HLA class I-presented peptide; sample human prostate. On the procedure: as §1
Assay [6] addresses T4, HLA-A*24:02 (human).
T4 construct: MHC class I molecule expressed by the cells or tissue sample (endogenous or BAP-tagged), immunopurified before peptide elution
Put plainly: MS validation of HLA class I-presented peptide (validation cell empty in Table 1C); sample human prostate.

Assay [7] deals with T3, HLA-A*02:01. Nature of the assay: MS validation of HLA class I-presented peptide; samples lung tumor, GBM, OvCa13, breast tumor, A375, MSV000082648. On the procedure: as §1, with “MHC molecules were eluted using 10% acetic acid and peptides were isolated using 10K molecular weight cut-off filtration following filter passivation with 1% bovine serum albumin (BSA). If required, samples were next reduced and alkylated using 5 mM Bond-Breaker TCEP solution at 60° C. for 30 min followed by 15 mM 2-Iodoacetamide for 30 min, protected from light. Samples were next acidified using 100% formic acid and desalted using 10 mg Sep-Pak tC18 μElution plates with peptide elutions at 15% acetonitrile and 50% acetonitrile, which were subsequently pooled. The volume of eluted peptides was reduced using vacuum centrifugation.” left out

In assay [8] the target is T3, HLA-A*02:01. Put plainly: MS validation of HLA class I-presented peptide; multiple cell lines and tumor samples. On the procedure:
as §1, with “MHC molecules were eluted using 10% acetic acid and peptides were isolated using 10K molecular weight cut-off filtration following filter passivation with 1% bovine serum albumin (BSA). If required, samples were next reduced and alkylated using 5 mM Bond-Breaker TCEP solution at 60° C. for 30 min followed by 15 mM 2-Iodoacetamide for 30 min, protected from light. Samples were next acidified using 100% formic acid and desalted using 10 mg Sep-Pak tC18 μElution plates with peptide elutions at 15% acetonitrile and 50% acetonitrile, which were subsequently pooled. The volume of eluted peptides was reduced using vacuum centrifugation.” left out

In assay [9] the target is T5, HLA-B*07:02 (human).
T5 construct: MHC class I molecule expressed by the cells or tissue sample (endogenous or BAP-tagged), immunopurified before peptide elution
Put plainly: MS validation of HLA class I-presented peptide; sample human prostate. On the procedure:
as §1

The target in assay [10] is T2, HLA-C*04:01. Nature of the assay: MS validation of HLA class I-presented peptide; sample CAMA1. On the procedure: as §1, with “MHC molecules were eluted using 10% acetic acid and peptides were isolated using 10K molecular weight cut-off filtration following filter passivation with 1% bovine serum albumin (BSA). If required, samples were next reduced and alkylated using 5 mM Bond-Breaker TCEP solution at 60° C. for 30 min followed by 15 mM 2-Iodoacetamide for 30 min, protected from light. Samples were next acidified using 100% formic acid and desalted using 10 mg Sep-Pak tC18 μElution plates with peptide elutions at 15% acetonitrile and 50% acetonitrile, which were subsequently pooled. The volume of eluted peptides was reduced using vacuum centrifugation.” left out

Assay [11] has as its target T6, HLA-C*06:02 (human).
T6 construct: MHC class I molecule expressed by the cells or tissue sample (endogenous or BAP-tagged), immunopurified before peptide elution
Nature of the assay: MS validation of HLA class I-presented peptide; sample MDAPCa2b. On the procedure: as §1, with “MHC molecules were eluted using 10% acetic acid and peptides were isolated using 10K molecular weight cut-off filtration following filter passivation with 1% bovine serum albumin (BSA). If required, samples were next reduced and alkylated using 5 mM Bond-Breaker TCEP solution at 60° C. for 30 min followed by 15 mM 2-Iodoacetamide for 30 min, protected from light. Samples were next acidified using 100% formic acid and desalted using 10 mg Sep-Pak tC18 μElution plates with peptide elutions at 15% acetonitrile and 50% acetonitrile, which were subsequently pooled. The volume of eluted peptides was reduced using vacuum centrifugation.” left out

Regarding HPEYNRPLL (listed as Homo sapiens), the “dot product similarity score of peptide fragment ions” value in [1] was 0.992.

B1: TWIAPPLQV (peptide)
peptide: TWIAPPLQV
For B1, the binding result in assay [2] is listed as “binds”.

B2: SLSKILDTV (peptide)
peptide: SLSKILDTV
For B2, in assay [3], the binding result was “binds”.

B3: KVLEHVVRV (peptide)
peptide: KVLEHVVRV
As for B3, in assay [4], the binding result is “binds”.

B4: LLANGRMPTV (peptide)
peptide: LLANGRMPTV
Turning to B4, the binding result in assay [5] was “binds”.

B5: GYLQGLVSF (peptide)
peptide: GYLQGLVSF
As to B5, in assay [6], the binding result is given as “binds”.

B6: GVYDGREHTV (peptide)
peptide: GVYDGREHTV
For the molecule B6, the binding result in assay [7] is “binds”.

B7: SLLQHLIGL (peptide)
peptide: SLLQHLIGL
Consider B7, for which, in assay [8], the binding result is given as “binds”.

B8: KVDELAHFL (peptide)
peptide: KVDELAHFL
In the case of B8, the binding result in assay [4] is on record as “binds”.

B9: MPALPMVL (peptide)
peptide: MPALPMVL
Take B9: in assay [9], the binding result is reported as “binds”.

B10: SIPTKALEL (peptide)
peptide: SIPTKALEL
B10: the binding result in assay [10] is on record as “binds”.

B11: AYSEKVTEF (peptide)
peptide: AYSEKVTEF
Regarding B11, in assay [11], the binding result was “binds”.
